Numbered stars: 1 amine (or outer) side, 2 acyl side, 3 side chain; on linkers, the order of the positions; unused ones are H or OH. Bridge positions count the residues as written; N and C are the ends. Side chains are listed from the residue outwards. Ends that are not written are not given here. * marks the point of attachment. C20 diacid = O=C(O)CCCCCCCCCCCCCCCCCCC(=O)*; γGlu = O=C(O)[C@H](CCC(=O)[*:2])N[*:1]
T1: human amylin 3(a) receptor (human calcitonin receptor plus RAMP-3) (human, UniProt P30988 25-474; O60896 24-148, limits assumed)
T1 construct: whole, on cells; Whole cells in the luciferase assay (Assay II a); also called hAmylin-R; human amylin receptor
T1 sequence (looked up) 1: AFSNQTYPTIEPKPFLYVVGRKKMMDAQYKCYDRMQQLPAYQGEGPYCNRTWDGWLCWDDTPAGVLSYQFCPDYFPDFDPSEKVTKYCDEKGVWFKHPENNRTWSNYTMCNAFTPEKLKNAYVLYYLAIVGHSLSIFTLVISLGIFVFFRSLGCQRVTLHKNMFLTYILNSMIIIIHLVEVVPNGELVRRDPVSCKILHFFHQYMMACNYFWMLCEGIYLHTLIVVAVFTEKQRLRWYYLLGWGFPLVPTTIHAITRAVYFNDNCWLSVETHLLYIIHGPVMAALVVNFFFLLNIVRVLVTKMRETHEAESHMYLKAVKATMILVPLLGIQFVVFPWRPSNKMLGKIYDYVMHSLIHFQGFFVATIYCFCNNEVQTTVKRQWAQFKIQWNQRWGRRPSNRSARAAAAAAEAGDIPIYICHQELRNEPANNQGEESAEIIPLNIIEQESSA
T1 sequence (looked up) 2: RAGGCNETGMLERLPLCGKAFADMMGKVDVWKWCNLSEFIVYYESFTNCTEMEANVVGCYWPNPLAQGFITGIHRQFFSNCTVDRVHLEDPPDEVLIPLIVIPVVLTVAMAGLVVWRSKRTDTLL

T2: human calcitonin receptor (human, UniProt P30988 25-474)
T2 sequence (looked up): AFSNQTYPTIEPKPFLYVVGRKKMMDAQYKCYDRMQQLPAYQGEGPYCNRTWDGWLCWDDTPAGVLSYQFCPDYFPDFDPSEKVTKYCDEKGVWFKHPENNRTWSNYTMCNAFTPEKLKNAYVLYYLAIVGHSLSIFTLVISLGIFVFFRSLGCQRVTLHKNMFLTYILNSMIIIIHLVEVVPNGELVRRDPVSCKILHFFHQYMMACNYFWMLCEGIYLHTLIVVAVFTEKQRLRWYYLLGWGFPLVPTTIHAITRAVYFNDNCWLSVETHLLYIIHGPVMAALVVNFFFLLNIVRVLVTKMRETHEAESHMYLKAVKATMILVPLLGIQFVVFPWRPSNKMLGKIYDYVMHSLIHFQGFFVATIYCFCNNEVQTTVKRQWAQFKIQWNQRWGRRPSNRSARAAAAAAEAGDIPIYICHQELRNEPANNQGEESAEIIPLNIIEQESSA

B1: N^α1N^α1-[(4S)-4-carboxy-4-(19-carboxynonadecanoylamino)butanoyl]-[Glu14,Arg17,Pro21,Pro27,Glu35]-h-amylin (peptide)
peptide: {C20 diacid-γGlu}-KCNTATCATQRLAEFLRHSSPNFGAIPSSTNVGSETY-NH2
modifications: disulfide 2-7
SMILES: CC[C@H](C)[C@H](NC(=O)[C@H](C)NC(=O)CNC(=O)[C@H](Cc1ccccc1)NC(=O)[C@H](CC(N)=O)NC(=O)[C@@H]1CCCN1C(=O)[C@H](CO)NC(=O)[C@H](CO)NC(=O)[C@H](Cc1c[nH]cn1)NC(=O)[C@H](CCCNC(=N)N)NC(=O)[C@H](CC(C)C)NC(=O)[C@H](Cc1ccccc1)NC(=O)[C@H](CCC(=O)O)NC(=O)[C@H](C)NC(=O)[C@H](CC(C)C)NC(=O)[C@H](CCCNC(=N)N)NC(=O)[C@H](CCC(N)=O)NC(=O)[C@@H](NC(=O)[C@H](C)NC(=O)[C@@H]1CSSC[C@H](NC(=O)[C@H](CCCCN)NC(=O)CC[C@H](NC(=O)CCCCCCCCCCCCCCCCCCC(=O)O)C(=O)O)C(=O)N[C@@H](CC(N)=O)C(=O)N[C@@H]([C@@H](C)O)C(=O)N[C@@H](C)C(=O)N[C@@H]([C@@H](C)O)C(=O)N1)[C@@H](C)O)C(=O)N1CCC[C@H]1C(=O)N[C@@H](CO)C(=O)N[C@@H](CO)C(=O)N[C@H](C(=O)N[C@@H](CC(N)=O)C(=O)N[C@H](C(=O)NCC(=O)N[C@@H](CO)C(=O)N[C@@H](CCC(=O)O)C(=O)N[C@H](C(=O)N[C@@H](Cc1ccc(O)cc1)C(N)=O)[C@@H](C)O)C(C)C)[C@@H](C)O
notes: also called compound 22
B2: N^ε1-[(4S)-4-carboxy-4-(19-carboxynonadecanoylamino)butanoyl]-[Glu14,Arg17,Pro21,Pro27,Arg34,Glu35]-h-amylin (peptide)
peptide: K([γGlu-C20 diacid])CNTATCATQRLAEFLRHSSPNFGAIPSSTNVGRETY-NH2
modifications: disulfide 2-7; N-terminus assumed
SMILES: CC[C@H](C)[C@H](NC(=O)[C@H](C)NC(=O)CNC(=O)[C@H](Cc1ccccc1)NC(=O)[C@H](CC(N)=O)NC(=O)[C@@H]1CCCN1C(=O)[C@H](CO)NC(=O)[C@H](CO)NC(=O)[C@H](Cc1c[nH]cn1)NC(=O)[C@H](CCCNC(=N)N)NC(=O)[C@H](CC(C)C)NC(=O)[C@H](Cc1ccccc1)NC(=O)[C@H](CCC(=O)O)NC(=O)[C@H](C)NC(=O)[C@H](CC(C)C)NC(=O)[C@H](CCCNC(=N)N)NC(=O)[C@H](CCC(N)=O)NC(=O)[C@@H](NC(=O)[C@H](C)NC(=O)[C@@H]1CSSC[C@H](NC(=O)[C@@H](N)CCCCNC(=O)CC[C@H](NC(=O)CCCCCCCCCCCCCCCCCCC(=O)O)C(=O)O)C(=O)N[C@@H](CC(N)=O)C(=O)N[C@@H]([C@@H](C)O)C(=O)N[C@@H](C)C(=O)N[C@@H]([C@@H](C)O)C(=O)N1)[C@@H](C)O)C(=O)N1CCC[C@H]1C(=O)N[C@@H](CO)C(=O)N[C@@H](CO)C(=O)N[C@H](C(=O)N[C@@H](CC(N)=O)C(=O)N[C@H](C(=O)NCC(=O)N[C@@H](CCCNC(=N)N)C(=O)N[C@@H](CCC(=O)O)C(=O)N[C@H](C(=O)N[C@@H](Cc1ccc(O)cc1)C(N)=O)[C@@H](C)O)C(C)C)[C@@H](C)O
B3: N^ε1-[(4S)-4-carboxy-4-(19-carboxynonadecanoylamino)butanoyl]-[Glu14,Arg17,Pro21,Pro27,Arg35]-h-amylin (peptide)
peptide: K([γGlu-C20 diacid])CNTATCATQRLAEFLRHSSPNFGAIPSSTNVGSRTY-NH2
modifications: disulfide 2-7; N-terminus assumed
SMILES: CC[C@H](C)[C@H](NC(=O)[C@H](C)NC(=O)CNC(=O)[C@H](Cc1ccccc1)NC(=O)[C@H](CC(N)=O)NC(=O)[C@@H]1CCCN1C(=O)[C@H](CO)NC(=O)[C@H](CO)NC(=O)[C@H](Cc1c[nH]cn1)NC(=O)[C@H](CCCNC(=N)N)NC(=O)[C@H](CC(C)C)NC(=O)[C@H](Cc1ccccc1)NC(=O)[C@H](CCC(=O)O)NC(=O)[C@H](C)NC(=O)[C@H](CC(C)C)NC(=O)[C@H](CCCNC(=N)N)NC(=O)[C@H](CCC(N)=O)NC(=O)[C@@H](NC(=O)[C@H](C)NC(=O)[C@@H]1CSSC[C@H](NC(=O)[C@@H](N)CCCCNC(=O)CC[C@H](NC(=O)CCCCCCCCCCCCCCCCCCC(=O)O)C(=O)O)C(=O)N[C@@H](CC(N)=O)C(=O)N[C@@H]([C@@H](C)O)C(=O)N[C@@H](C)C(=O)N[C@@H]([C@@H](C)O)C(=O)N1)[C@@H](C)O)C(=O)N1CCC[C@H]1C(=O)N[C@@H](CO)C(=O)N[C@@H](CO)C(=O)N[C@H](C(=O)N[C@@H](CC(N)=O)C(=O)N[C@H](C(=O)NCC(=O)N[C@@H](CO)C(=O)N[C@@H](CCCNC(=N)N)C(=O)N[C@H](C(=O)N[C@@H](Cc1ccc(O)cc1)C(N)=O)[C@@H](C)O)C(C)C)[C@@H](C)O
notes: also called compound 51
B4: N^ε1-[(4S)-4-carboxy-4-(19-carboxynonadecanoylamino)butanoyl]-[Glu14,Arg17,Pro21,Pro27,His34,Glu35]-h-amylin (peptide)
peptide: K([γGlu-C20 diacid])CNTATCATQRLAEFLRHSSPNFGAIPSSTNVGHETY-NH2
modifications: disulfide 2-7; N-terminus assumed
SMILES: CC[C@H](C)[C@H](NC(=O)[C@H](C)NC(=O)CNC(=O)[C@H](Cc1ccccc1)NC(=O)[C@H](CC(N)=O)NC(=O)[C@@H]1CCCN1C(=O)[C@H](CO)NC(=O)[C@H](CO)NC(=O)[C@H](Cc1c[nH]cn1)NC(=O)[C@H](CCCNC(=N)N)NC(=O)[C@H](CC(C)C)NC(=O)[C@H](Cc1ccccc1)NC(=O)[C@H](CCC(=O)O)NC(=O)[C@H](C)NC(=O)[C@H](CC(C)C)NC(=O)[C@H](CCCNC(=N)N)NC(=O)[C@H](CCC(N)=O)NC(=O)[C@@H](NC(=O)[C@H](C)NC(=O)[C@@H]1CSSC[C@H](NC(=O)[C@@H](N)CCCCNC(=O)CC[C@H](NC(=O)CCCCCCCCCCCCCCCCCCC(=O)O)C(=O)O)C(=O)N[C@@H](CC(N)=O)C(=O)N[C@@H]([C@@H](C)O)C(=O)N[C@@H](C)C(=O)N[C@@H]([C@@H](C)O)C(=O)N1)[C@@H](C)O)C(=O)N1CCC[C@H]1C(=O)N[C@@H](CO)C(=O)N[C@@H](CO)C(=O)N[C@H](C(=O)N[C@@H](CC(N)=O)C(=O)N[C@H](C(=O)NCC(=O)N[C@@H](Cc1c[nH]cn1)C(=O)N[C@@H](CCC(=O)O)C(=O)N[C@H](C(=O)N[C@@H](Cc1ccc(O)cc1)C(N)=O)[C@@H](C)O)C(C)C)[C@@H](C)O
notes: also called compound 107
B5: N^ε1-[(4S)-4-carboxy-4-(19-carboxynonadecanoylamino)butanoyl]-[Glu14,Arg17,Pro21,Pro27,Pro34,Arg35]-h-amylin (peptide)
peptide: K([γGlu-C20 diacid])CNTATCATQRLAEFLRHSSPNFGAIPSSTNVGPRTY-NH2
modifications: disulfide 2-7; N-terminus assumed
SMILES: CC[C@H](C)[C@H](NC(=O)[C@H](C)NC(=O)CNC(=O)[C@H](Cc1ccccc1)NC(=O)[C@H](CC(N)=O)NC(=O)[C@@H]1CCCN1C(=O)[C@H](CO)NC(=O)[C@H](CO)NC(=O)[C@H](Cc1c[nH]cn1)NC(=O)[C@H](CCCNC(=N)N)NC(=O)[C@H](CC(C)C)NC(=O)[C@H](Cc1ccccc1)NC(=O)[C@H](CCC(=O)O)NC(=O)[C@H](C)NC(=O)[C@H](CC(C)C)NC(=O)[C@H](CCCNC(=N)N)NC(=O)[C@H](CCC(N)=O)NC(=O)[C@@H](NC(=O)[C@H](C)NC(=O)[C@@H]1CSSC[C@H](NC(=O)[C@@H](N)CCCCNC(=O)CC[C@H](NC(=O)CCCCCCCCCCCCCCCCCCC(=O)O)C(=O)O)C(=O)N[C@@H](CC(N)=O)C(=O)N[C@@H]([C@@H](C)O)C(=O)N[C@@H](C)C(=O)N[C@@H]([C@@H](C)O)C(=O)N1)[C@@H](C)O)C(=O)N1CCC[C@H]1C(=O)N[C@@H](CO)C(=O)N[C@@H](CO)C(=O)N[C@H](C(=O)N[C@@H](CC(N)=O)C(=O)N[C@H](C(=O)NCC(=O)N1CCC[C@H]1C(=O)N[C@@H](CCCNC(=N)N)C(=O)N[C@H](C(=O)N[C@@H](Cc1ccc(O)cc1)C(N)=O)[C@@H](C)O)C(C)C)[C@@H](C)O

How the values were obtained:
[1] = biological target: T1, human amylin 3(a) receptor (human …); experiment: SPA competition binding, displacement of 125I-rat amylin from membranes of Amylin 3(a)/CRE-luc BHK cells (Assay V)
In short: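 SPA beads + BHK amylin 3(a)/CRE-luc membranes, 35 ng/μL final; buffer 50 mM Hepes pH 7.4, 1 mM CaCl2, 5 mM MgCl₂, 0.1% OA, 0.02% Tween20. 120 min, 25° C, shaken; scintillation count. IC₅₀ by one-site binding competition fit, taken as receptor affinity.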

[2] = biological target: T2, human calcitonin receptor; experiment: cell-based or functional assay
[3] = biological target: T1, human amylin 3(a) receptor (human …); experiment: cell-based or functional assay

Row | Binder | IC50 [1] [pM] | hCTR funct. EC50 [2] [pM] | Ratio hCT/hAmylin funct. [3] | hAmylin-R funct. EC50 [3] [pM]
1 | B1 | 794 | 1030 | 3.8 | 270
2 | B2 | 232 | 2740 | 6.5 | 421
3 | B3 | 828 | 5220 | 14 | 372
4 | B4 | 387 | 2540 | 6.3 | 405
5 | B5 | 163 | 6380 |  | 376
